The term Kd denotes a measure of binding affinity in units of concentration. A higher Kd goes with a looser complex.

In the experiment the target is canine FcRn-β2M complex (canine). Description: SPR, antibody captured on Protein L, soluble FcRn 920 and 460 nM, pH 6.0, 25 C. For orientation: In SPR one partner is held on a chip, and binding of the other changes the refractive index at the surface.

Consider YTE-b12 canine IgGB (antibody), for which the Kd came out at 150 nM.

The values above are taken from US20200181258A1.
